Here are results for three proteins from paper PMC7746861, “Acetate Metabolism in Archaea: Characterization of an Acetate Transporter and of Enzymes Involved in Acetate Activation and Gluconeogenesis in Haloferax volcanii” (Frontiers in Microbiology, 2020).

Substrate in data set [1]: NC(=O)c1ccc[n+]([C@@H]2O[C@H](COP(=O)(O)OP(=O)(O)OC[C@H]3O[C@@H](n4cnc5c(N)ncnc54)[C@H](O)[C@@H]3O)[C@@H](O)[C@H]2O)c1
Nature of the data set: purified protein. The note with it: 10 mM malate, MnCl2, […] KCl, pH 7.0, 42°C, varied: cofactor. It is filed as biochemical, Haloferax volcanii.

Substrate in data set [2]: NC(=O)c1ccc[n+]([C@@H]2O[C@H](COP(=O)(O)OP(=O)(O)OC[C@H]3O[C@@H](n4cnc5c(N)ncnc54)[C@H](OP(=O)(O)O)[C@@H]3O)[C@@H](O)[C@H]2O)c1
Briefly: purified protein. The class given is biochemical, Haloferax volcanii. The note with it: 10 mM malate, MnCl2, […] KCl, pH 7.0, 42°C, varied: cofactor.

Substrate in data set [3]: CC(=O)C(=O)O
Briefly: discontinuous PEP formation assay. The class given is biochemical, Haloferax volcanii. Conditions: ATP, MgCl2, DTE, 2 M KCl, pH 8.0, 42°C.

Substrate in data set [4]: Nc1ncnc2c1ncn2[C@@H]1O[C@H](COP(=O)(O)OP(=O)(O)OP(=O)(O)O)[C@@H](O)[C@H]1O
Nature of the data set: discontinuous PEP formation assay. The class given is biochemical, Haloferax volcanii. Conditions: pyruvate, MgCl2, DTE, 2 M KCl, pH 8.0, 42°C.

Substrate in data set [5]: CC(=O)O
Briefly: purified protein. Conditions: acetate activation, ATP, CoA, MgCl2, 1 M KCl, pH 7.0, 42°C, pH 7.0.

Substrate in data set [6]: CC(=O)SCCNC(=O)CCNC(=O)[C@H](O)C(C)(C)COP(=O)(O)OP(=O)(O)OC[C@H]1O[C@@H](n2cnc3c(N)ncnc32)[C@H](O)[C@@H]1OP(=O)(O)O
Briefly: purified protein. The class given is biochemical, Haloferax volcanii. The note with it: acetate formation (reverse), AMP, PPi, MgCl2, 1 M KCl, pH 7.0, 42°C.

Substrate in data set [7]: CC(C)(COP(=O)(O)OP(=O)(O)OC[C@H]1O[C@@H](n2cnc3c(N)ncnc32)[C@H](O)[C@@H]1OP(=O)(O)O)[C@@H](O)C(=O)NCCC(=O)NCCS
Briefly: purified protein. The note with it: acetate activation, ATP, CoA, MgCl2, 1 M KCl, pH 7.0, 42°C. The class given is biochemical, Haloferax volcanii.

Substrate in data set [8]: Nc1ncnc2c1ncn2[C@@H]1O[C@H](COP(=O)(O)O)[C@@H](O)[C@H]1O
Briefly: purified protein. It is filed as biochemical, Haloferax volcanii. Conditions: acetate formation (reverse), acetyl-CoA, PPi, MgCl2, 1 M KCl, pH 7.0, 42°C.

Substrate in data set [9]: Nc1ncnc2c1ncn2[C@@H]1O[C@H](COP(=O)(O)OP(=O)(O)OP(=O)(O)O)[C@@H](O)[C@H]1O
Nature of the data set: purified protein. It is filed as biochemical, Haloferax volcanii. Conditions: acetate activation, ATP, CoA, MgCl2, 1 M KCl, pH 7.0, 42°C.

B1: Mae2 (Haloferax volcanii DS2) (protein)
chain: MTLGDDARDYHRRPPAGKVEIATTKPTNTQRDLSLAYSPGVAAPCRDIAEDENAAYEYTAKGNLVGVVSNGSAVLGLGDIGAQASKPVMEGKGVLFKRFADIDVFDVEFDHDDPQAFVESVAAMEPTFGGINLEDIRAPECFEIEESLRERMDIPVFHDDQHGTAIISGAALLNAADIADKELSSLNVTFSGAGAAATATARFYVSLGIPHENITLCDIDGVLSESRAEAGELDEYAEPFARGVDDGDLEDAMEGADVLVGLSVGGIVSQETVRSMADDPIIFAMANPEPEIAYEDAKEARDDTVIMATGRSDYPNQVNNVLGFPFIFRGALDVRATEINEEMKRAAAEALANLARQDVPDAVVKAYGDGPLQFGPDYLIPKPLDQRVLYEVTPAVAEAAMKSGAARRERDLDDYREELEARLGKSREMMRVVLNKAASNPKRVVLAEGEDEKMIRAASQLVEEGIAEPILVGRTKEILRTAEDLGLDFDPTIADPESGEWNHYVDHLYERRQRKGLTRTEAAELVRGDSNYFASVMVEVGDADAMLTGLTHHYPSALRPPLQIIGTADDADYAAGVYMLTFRNRVIFCADATVNLDPDENVLAEVTKHTAELARRFNVEPRAALLSYSDFGSVTNEGTRKPRNAVEQLHADPDVDFPVDGEMQADTALVEEMLTDTYDFAELDDPANVLVFPNLEAGNIGYKLLQRLGGAEAIGPMLVGMDKPVHVLQRGDEVKDIVNLAGVAVVDAQSE
notes: full length with C-terminal PTA domain, Ni-NTA purified, homologous expression in H. volcanii; 530 kDa, subunit 81 kDa
In general, Km refers to the concentration of substrate that gives half-maximal velocity. Regarding B1, the Michaelis constant (Km) in data set [1] came out at 150 µM; in data set [2], 100 µM.

B2: PPS (Haloferax volcanii DS2) (protein)
chain: MAVVWLDDVRADDLDLVGGKGASLGELTGAGLPVPPGFVVTASTYRAFIEDAGIDDELFAAVEVDHEDSEALQAAHETAHDLIMETPMPDDVREEILDAYRSVGEGDAFVAVRSSATAEDLPDASFAGQQETFLNVTEEDLLDRVKECWASLFSERAIYYRNRKGFPHDKVDIAVVVQQMVDAEKSGVMFTRHPSTGKKEIIIEAAWGLGEAVVSGTVSPDNYVVSRETGEVETATIADKKTMCVRDEESGETVMRDVPNGRRHERVLTDDEVSRLLELGELVEDHYEKPQDVEWAVYDGEVYMLQSRPITTIAEGDDGEETESEGDSSGSSRATATGDDVLIRGLGASPGIASGRARIVTKLDHLDQVAEGDIIVTEMTMPDMVPAMKRAAGIVTDEGGMTSHAAIVSRELGVPAVVGTGDGTKTLEDGEVVTIDGDKGTVREGEEPEEKQRQPVEEARPKTPVKPMTATEVKVNVSIPEAAERAAATGADGVGLLRIEHMVLTLGKTPGRFIEQNGERAYVDEIVSGVREAAEEFYPRPVRVRTLDAPTDEFRQLEGGENEPREHNPMLGYRGIRRGLDNPSVFRLELQAFRRLFDMGYDNLEVMFPLVNDAEDVLRAKEHMREAGIDPEKREWGVMIETPAAALCIEELADAGIDFASFGTNDLTQYTLAVDRNNEHVADIYDELHPAVLKLIGDTIETCREVGVKTSICGQAGSKPKMVQFLVDKGVSSISANIDAVRDVQHEVKRVEQRLLLDSVR
notes: full length, Ni-NTA purified, homologous expression in H. volcanii
With B2, the Michaelis constant (Km) in data set [3] came out at 270 µM; in data set [4], 360 µM.

B3: ACS7 (Haloferax volcanii DS2) (protein)
chain: MAQGDAELEARLAEQDEFEPTEEFVAQANVSDAGIYDEFEENWPDCWERAADLLDWDADYDEVLDDSNPPFYEWFTGGELNACYNCVDRHVENGDKNRVAIKWEGEHGETRTYTYQDLYREVNEFAAALRDLGVEEDDVVTLYMPMVPELPIAMLACARIGAPHNVVFAGFSAEALATRMNAADSRFLVTCDGYYRRGDPLDHLDKTNEGLDSVDHGVDATVVVDRLGDDGFDHDLKGNQHDWDDLLEAQSGERVAPVERDAEDMLFLMYTSGTTGQPKGVKHTTGGYLSYATWTSHAVLDIETEDTYWCSADIGWITGHSYIVYGPLALGSTTVMYEGTPDFPNRDRMWELVEKYAVDIFYTAPTAIRAFMKWGSKYPESRDLSSLRLLGTVGEPINPRAWKWYYEHIGNENCPVVDTWWQTETGGMMITTLPGVKNMKPGSAGPPLPGIDAQIVDTDGDEVEPGRAGYLTVNKPWPGMLRTLYDNDERYISEYWAEYSDTDSDDPDDWVYFPEDGAKVDEDGYITVLGRVDDVINVSGHRLGTMEIESAIVGVEGVAEAAVVGGNHEVKGEAVYAYVITEDGYEEGEDLRARIVEGVEDAIGPIARPEQVVFTPELPKTRSGKIMRRLLEDVANGAELGNTSTLRNPEIVGEIEAKVRAQSD
notes: full length, Ni-NTA purified (pTA963), homologous expression in H. volcanii H1209
As a reminder, the Vmax is the rate approached at saturating substrate. In the case of B3, the Km in data set [5] amounted to 840 µM; in data set [6], 150 µM; in data set [7], 230 µM; in data set [8] it was 90 µM; in data set [9] it was 590 µM. In addition, the figures for the Vmax in data set [5] and in data set [6] were 26.1 µmol/min/mg and 6.2 µmol/min/mg, respectively.
